# From patent US20220340642A1 (Kyowa Kirin, published 2022)
# Where a chain is given by its changes, count along the chain named. Numbers in names are those of the source.
# T1: membrane-bound human FasL (Met and FLAG tag at the N-terminus) on CHO-K1 cells (human, UniProt P48023 2-281)
# T1 construct: also called FasL/CHO
# T1 sequence: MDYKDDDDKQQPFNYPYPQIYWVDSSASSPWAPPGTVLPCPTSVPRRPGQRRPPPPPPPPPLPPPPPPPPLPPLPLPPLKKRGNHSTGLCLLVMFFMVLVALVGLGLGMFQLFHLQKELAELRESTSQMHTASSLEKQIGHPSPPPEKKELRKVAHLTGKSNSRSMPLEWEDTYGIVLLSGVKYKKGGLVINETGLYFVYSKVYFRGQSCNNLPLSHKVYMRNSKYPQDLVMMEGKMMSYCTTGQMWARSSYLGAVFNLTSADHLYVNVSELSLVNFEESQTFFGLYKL
# B1: chimera A-E57K_R58D-Fc (Eg1S LALAGANA) (Fc fusion)
# chain: ETFPPKYLHYDEETSHQLLCDKCPPGTYLKQHCTAKWKTVCAPCPPRHYTQFWNYLKDCRYCNVLCGEREEEARACHATHNRACRCRTGFFAHAGFCLEHASCPPGAGVIAPGTPSQNTQCQPCPDGFFSNETSSKAPCRKHTNCSVFGLLLTQKGNATHDNICSGNSESTQKEPKSSDKTHTCPPCPAPEAAGAPSVFLFPPKPKDTLMISRTPEVTCVVVDVSHEDPEVKFNWYVDGVEVHNAKTKPREEQYNSTYRVVSVLTVLHQDWLNGKEYKCKVSNKALPAPIEKTISKAKGQPREPQVYTLPPSRDELTKNQVSLTCLVKGFYPSDIAVEWESNGQPENNYKTTPPVLDSDGSFFLYSKLTVDKSRWQQGNVFSCSVMHEALHAHYTQKSLSLSPGK
# B2: chimera A-E57K-Fc (Eg1S LALAGANA) (Fc fusion)
# chain: B1 chain with D58R
# B3: chimera A-E57K-Fc (Eg1S YTE) (Fc fusion)
# chain: B1 chain with D58R, A192L, A193L, A195G, M210Y, S212T, T214E, A392N
# B4: chimera A-E57R-Fc (Eg1S YTE) (Fc fusion)
# chain: B1 chain with K57R, D58R, A192L, A193L, A195G, M210Y, S212T, T214E, A392N
# B5: chimera A-E57K_R58E-Fc (Eg1S LALAGANA) (Fc fusion)
# chain: B1 chain with D58E
# B6: chimera A-E57R-Fc (Eg1S LALAGANA) (Fc fusion)
# chain: B1 chain with K57R, D58R
# B7: chimera A-E57V-Fc (Eg1S YTE) (Fc fusion)
# chain: B1 chain with K57V, D58R, A192L, A193L, A195G, M210Y, S212T, T214E, A392N
# B8: chimera A-E57V-Fc (Eg1S LALAGANA) (Fc fusion)
# chain: B1 chain with K57V, D58R
# B9: chimera A-E57K_R58E-Fc (Eg1S YTE) (Fc fusion)
# chain: B1 chain with D58E, A192L, A193L, A195G, M210Y, S212T, T214E, A392N
# notes: also called 45-18-Fc (Eg1S YTE)
# B10: chimera A-E57K_R58D-Fc (Eg1S YTE) (Fc fusion)
# chain: B1 chain with A192L, A193L, A195G, M210Y, S212T, T214E, A392N
# notes: also called 45-10-Fc (Eg1S YTE)
# Biological target: T1, membrane-bound human FasL (Met and FLAG …)
# Experiment: flow cytometry on expressing cells
# In short: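 Binding was measured by flow cytometry on HEK293 cells forced to express membrane-bound LIGHT and on cell lines expressing N-terminally Met/FLAG-tagged TL1A or FasL from a CMV-promoter pClpuro vector. Cells at 1×10⁵ cells/well received 1 or 10 μg/mL protein on ice for 1 hour. After washing, cells were stained on ice for 1 hour with LIVE/DEAD Fixable Aqua and R-phycoerythrin goat F(ab′)₂ anti-human IgG (10 ng/mL, 0.1 or 1 μg/mL). Fluorescence was read on a FACS Fortessa.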
row,binding result,Binder
1,binds,B1
2,binds,B2
3,binds,B3
4,binds,B4
5,binds,B5
6,binds,B6
7,binds,B7
8,binds,B8
9,binds,B9
10,binds,B10
